Reference: US20200289563A1 (WUXI BIOLOGICS IRELAND, published 2020)
Numbering of substitutions follows the chain as printed.

Columns and labels:
human CD19 [1] = target: T1, human CD19 (human, UniProt P15391 20-556); assay: cell-based or functional assay
T1 sequence (looked up): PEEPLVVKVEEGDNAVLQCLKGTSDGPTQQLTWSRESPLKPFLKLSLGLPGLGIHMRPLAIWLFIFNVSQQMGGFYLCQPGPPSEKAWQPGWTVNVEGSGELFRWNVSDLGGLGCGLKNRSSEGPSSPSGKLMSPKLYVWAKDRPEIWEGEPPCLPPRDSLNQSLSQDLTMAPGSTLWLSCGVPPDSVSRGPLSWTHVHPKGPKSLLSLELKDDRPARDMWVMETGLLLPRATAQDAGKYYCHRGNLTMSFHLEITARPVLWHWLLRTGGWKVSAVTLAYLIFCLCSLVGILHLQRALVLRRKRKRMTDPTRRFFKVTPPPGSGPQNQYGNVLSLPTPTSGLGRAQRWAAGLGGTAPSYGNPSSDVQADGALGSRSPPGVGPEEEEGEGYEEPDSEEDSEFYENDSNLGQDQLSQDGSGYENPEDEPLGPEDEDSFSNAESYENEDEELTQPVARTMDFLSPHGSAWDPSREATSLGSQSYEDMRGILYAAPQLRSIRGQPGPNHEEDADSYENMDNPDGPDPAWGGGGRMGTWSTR

cynomolgus monkey CD19 = target: T2, cynomolgus monkey CD19 (cynomolgus monkey, UniProt A0A2K5W8L9 20-557); assay: flow cytometry on cynomolgus CD19 transfected CHO-K1 cells
T2 construct: whole, on cells; also called cyno CD19; cPro1
T2 sequence: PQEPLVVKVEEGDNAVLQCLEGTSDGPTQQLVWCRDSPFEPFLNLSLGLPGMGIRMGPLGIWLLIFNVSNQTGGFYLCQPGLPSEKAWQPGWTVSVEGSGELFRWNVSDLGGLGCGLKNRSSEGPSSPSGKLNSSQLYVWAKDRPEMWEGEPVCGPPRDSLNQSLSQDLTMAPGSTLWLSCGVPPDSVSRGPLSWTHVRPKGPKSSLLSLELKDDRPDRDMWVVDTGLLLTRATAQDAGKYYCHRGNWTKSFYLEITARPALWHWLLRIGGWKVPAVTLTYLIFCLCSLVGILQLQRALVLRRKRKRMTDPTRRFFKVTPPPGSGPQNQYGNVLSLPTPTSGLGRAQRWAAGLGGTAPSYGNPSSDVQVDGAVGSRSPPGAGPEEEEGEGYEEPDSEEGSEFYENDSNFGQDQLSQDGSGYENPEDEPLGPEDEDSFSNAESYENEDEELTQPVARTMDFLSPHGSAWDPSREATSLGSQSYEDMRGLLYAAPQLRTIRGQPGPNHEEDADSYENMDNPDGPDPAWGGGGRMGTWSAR
Procedure: (§1) The cynomolgus CD19 transfected CHO-K1 cells were plated in 96-well U-bottom plates (BD) at a density of 1×10⁵ cells/well. The purified antibody were serially diluted in the staining buffer (1×PBS/1% BSA) and incubated with cells for 1 hr at 4° C. The cells were then washed twice with staining buffer (BSA/1×PBS). […] The cells were then washed twice and re-suspended in 100 μL staining buffer. The fluorescence intensity was measured by flow cytometry (BD Canto II) and analyzed by FlowJo.
The binding activity to cynomogus monkey CD19 of candidate antibodies was evaluated using cynomolgus monkey CD19 transfected CHO-K1 cell line (FIG. 5).

human CD19 [2] = target: T1, human CD19; assay: flow cytometry on CD19 transfected CHO-K1 cells, Scatchard analysis
Procedure: The CD19 transfected CHO-K1 cells or Ramos cells were plated in a 96-well plates (BD) at a density of 5×10⁴ cells/well. Antibodies to be tested were serially diluted in the staining buffer (1×PBS/1% BSA) and incubated with cells at 4° C. for 1 hr.
The affinity of selected candidate antibodies were tested on CD19 transfected CHO-K1 cell by flow cytometry.

human CD19 [3] = target: T1, human CD19; assay: flow cytometry on Ramos cells
Procedure: as §1, with “Ramos” for “cynomolgus CD19 transfected CHO-K1”
Binding activity of the selected subclones were tested on Ramos cell by flow cytometry (FIG. 4).

human CD19 [4] = target: T1, human CD19; assay: FACS on Ramos cells, Scatchard analysis
Procedure: KD was calculated using Scatchard Analysis.

B1: WBP7011-4.87.6 (antibody, V domains shown)
VH: QVQLQQSGAELVRPGSSVKISCKASGYAFSTYWMNWVKQRPGQGLEWIGQIYPGDDDTKYNGKFKGKASLTADKSSSTAYMQLISLTSEDSAVYFCARRYFRYDYWYSDVWGAGTTVTVTS
VL: DIQMTQTTSSLSASLGDRVTISCRASQDISNYLNWYQQKPDGTVKLLIYYTSRLHSGVPARFSGSGSGTDYSLTISNLEQEDIATYFCHQGNTLPLTFGAGTKLELK
B1 was tested, and the “EC50 of cell viability, Fab-Zap assay on Ramos cells (internalization)” value (“EC50 of cell viability, Fab-Zap assay” for short) (human CD19 [1]) was 0.0085 nM, the EC50 (cynomolgus monkey CD19) was 0.285 nM and the Kd (human CD19 [2]) was 0.0955 nM. For the same binder, the EC50 (human CD19 [3]) was 0.1 nM.

B2: WBP7011_4.155.8 (antibody, V domains shown)
VH: EIQLQQSGPELVKPGASVKVSCKASGYAFTSYNMYWVKQSHGKSLEWIGYIDPYNGDTTYNQKFKGKATLTVDKSSSTAYMHLNSLTSEDSAVYYCLTTAYAMDYWGQGTSVTVSS
VL: QIVLTQSPAIMSASLGEEITLTCSASSTVNYMHWYQQKSGTSPKLLIYSTSNLASGVPSRFSGSGSGTFYSLTIRSVEAEDAADYYCHQWSSYPYTFGGGTKLEIK
In the case of B2, the “EC50 of cell viability, Fab-Zap assay” value (human CD19 [1]) is reported as 0.0276 nM, the EC50 (cynomolgus monkey CD19) is reported as 1.54 nM and the Kd (human CD19 [2]) is reported as 0.949 nM. For the same binder, the EC50 (human CD19 [3]) was 0.85 nM.

B3: WBP7011_4.202.9 (antibody, mouse IgG2a, V domains shown)
VH: B2 VH
VL: B2 VL
notes: also called W7011-4.202.9
In the case of B3, the “EC50 of cell viability, Fab-Zap assay” value (human CD19 [1]) is reported as 0.0236 nM, the EC50 (cynomolgus monkey CD19) is reported as 2.3 nM and the Kd (human CD19 [2]) is reported as 0.847 nM. The EC50 (human CD19 [3]) was 0.64 nM.

B4: WBP7011_4.225.7 (antibody, mouse IgG2a, V domains shown)
VH: B2 VH
VL: B2 VL
notes: also called W7011-4.225.7
For B4, the “EC50 of cell viability, Fab-Zap assay” value (human CD19 [1]) was 0.015 nM, the EC50 (cynomolgus monkey CD19) was 1.77 nM and the Kd (human CD19 [2]) was 0.735 nM. It also gave an EC50 (human CD19 [3]) of 0.45 nM.

B5: WBP7011-4.87.6-z1-IgG1k (N-S) (antibody, V domains shown)
VH: QVQLVQSGAEVKKPGASVKVSCKASGYAFSTYWMNWVRQAPGQGLEWMGQIYPGDDDTKYSGKFKGRVTITADKSTSTAYMELSSLRSEDTAVYYCARRYFRYDYWYSDVWGQGTTVTVSS
VL: DIQMTQSPSSLSASVGDRVTITCRASQDISNYLNWYQQKPGKVPKLLIYYTSRLHSGVPSRFSGSGSGTDFTLTISSLQPEDVATYYCHQGNTLPLTFGQGTKLEIK
notes: human IgG1, kappa by its name
Work on B5 yielded a Kd (human CD19 [4]) of 0.25 nM.

B6: WBP7011-4.100.1 (antibody, V domains shown)
VH: EVQLQQSGPELVKPGASVKMSCKASGYTFTSYVIHWVKQKPGQGLEWIGYINPYNDGAEYTEKFKGKATLTSDKSSSTAYMELSSLTSEDSTVYYCARGPYYYGGSPFDYWGQGTTLTVSS
VL: DAVMTQTPLSLPVSLGDQASISCRSSQSLENSNGNTYLNWYLQKPGQSPQLLIYRVSNRFSGVLDRFSGSGSGTDFTLKISRVEAEDLGVYFCLQVTHVPYTFGGGTKLEIK
notes: also called W7011-4.100.1
With B6 the “EC50 of cell viability, Fab-Zap assay” value (human CD19 [1]) was 0.0148 nM, the EC50 (cynomolgus monkey CD19) was 0.438 nM and the Kd (human CD19 [2]) was 0.213 nM. For the same binder, the EC50 (human CD19 [3]) was 0.17 nM.

B7: WBP7011_4.191.6 (antibody, mouse IgG1, V domains shown)
VH: B6 VH with Q5L, S31D, K40R, A58S, T61S, T92A
VL: B6 VL
notes: Mouse monoclonal from hybridoma; isotype printed only for the sister subclone 4.191.3 (mouse IgG1, kappa); also called W7011-4.191.6
For B7, the “EC50 of cell viability, Fab-Zap assay” value (human CD19 [1]) was 0.0191 nM and the EC50 (human CD19 [3]) was 0.07 nM.

B8: WBP7011_4.56.1 (antibody, V domains shown)
VH: B6 VH with S31N, A58T, T61N, K74T, E82A, T92A, A97T
VL: B6 VL
notes: also called W7011-4.56.1
In the case of B8, the “EC50 of cell viability, Fab-Zap assay” value (human CD19 [1]) is reported as 0.0084 nM, the EC50 (cynomolgus monkey CD19) is reported as 0.438 nM and the Kd (human CD19 [2]) is reported as 0.118 nM. It also gave an EC50 (human CD19 [3]) of 0.1 nM.

B9: WBP7011_4.231.5 (antibody, V domains shown)
VH: B6 VH with I34M, A58T, E59Q, T61N, T92A, G104S, G105P
VL: B6 VL
notes: also called W7011-4.231.5
For B9, the “EC50 of cell viability, Fab-Zap assay” value (human CD19 [1]) was 0.0085 nM, the EC50 (cynomolgus monkey CD19) was 0.628 nM and the Kd (human CD19 [2]) was 0.17 nM. It also gave an EC50 (human CD19 [3]) of 0.12 nM.

B10: WBP7011_4.194.10 (antibody, V domains shown)
VH: B6 VH with I34M, A58T, E59K, T61N, T92A, G105S
VL: B6 VL with S28T, A85T
notes: also called W7011-4.194.10
For B10, the “EC50 of cell viability, Fab-Zap assay” value (human CD19 [1]) was 0.0117 nM, the EC50 (cynomolgus monkey CD19) was 0.996 nM and the Kd (human CD19 [2]) was 0.42 nM. The EC50 (human CD19 [3]) was 0.15 nM.

B11: WBP7011-4.106.3 (antibody, V domains shown)
VH: B6 VH with T30S, T61A, T78S, S84G, T92A
VL: B6 VL
notes: also called W7011-4.106.3
With B11 the “EC50 of cell viability, Fab-Zap assay” value (human CD19 [1]) was 0.0136 nM, the EC50 (cynomolgus monkey CD19) was 0.496 nM and the Kd (human CD19 [2]) was 0.231 nM. The EC50 (human CD19 [3]) was 0.23 nM.

B12: WBP7011_4.108.3 (antibody, V domains shown)
VH: B6 VH with K19E, V37L, T61N, E82D, S84N, T92A, G105S
VL: B6 VL
notes: also called W7011-4.108.3
B12 was tested, and the “EC50 of cell viability, Fab-Zap assay” value (human CD19 [1]) was 0.0206 nM, the EC50 (cynomolgus monkey CD19) was 0.863 nM and the Kd (human CD19 [2]) was 0.252 nM. The EC50 (human CD19 [3]) was 0.19 nM.

B13: WBP7011-4.34.11 (antibody, V domains shown)
VH: B6 VH with S31N, I51F, A58T, T61N, G66A, T92A, R98K, G105S
VL: B6 VL
In the case of B13, the “EC50 of cell viability, Fab-Zap assay” value (human CD19 [1]) is reported as 0.007 nM, the EC50 (cynomolgus monkey CD19) is reported as 0.443 nM and the Kd (human CD19 [2]) is reported as 0.181 nM. It also gave an EC50 (human CD19 [3]) of 0.23 nM.

B14: WBP7011-4.15.10 (antibody, V domains shown)
VH: B6 VH with I34M, V37M, A58T, T61H, T92A, Y94F, Y110F
VL: B6 VL
notes: also called W7011-4.15.10
For B14, the “EC50 of cell viability, Fab-Zap assay” value (human CD19 [1]) was 0.0139 nM, the EC50 (cynomolgus monkey CD19) was 0.46 nM and the Kd (human CD19 [2]) was 0.17 nM. For the same binder, the EC50 (human CD19 [3]) was 0.31 nM.

B15: WBP7011-4.34.11-z1-m5-IgG1k (antibody, V domains shown)
VH: QVQLVQSGAEVKKPGSSVKVSCKASGYTFTDYVIHWVRQAPGQGLEWMGYFNPYNDGTEYNEKFKARVTITADKSTSTAYMELSSLRSEDTAVYYCARGPYYYGSSPFDYWGQGTTVTVSS
VL: DIVMTQTPLSLPVTPGEPASISCRSSQSLENSNHNTYINWYLQKPGQSPQLLIYRVSKRFSGVPDRFSGSGSGTDFTLKISRVEAEDVGVYYCHQVTHVPYTFGQGTKLEIK
notes: human IgG1, kappa by its name
Binder B15 has a Kd (human CD19 [4]) of 0.23 nM.
